Test results published in patent US20230265187A1 (published 2023).
Where a chain is given by its changes, count along the chain named.

T1: his-tagged murine TIGIT (Acro Biosystems #TIT-M52E6) (murine, UniProt P86176 29-148, limits assumed)
T1 construct: Bought protein; also called mouse his-tagged TIGIT; not shown: his tag
T1 sequence (looked up): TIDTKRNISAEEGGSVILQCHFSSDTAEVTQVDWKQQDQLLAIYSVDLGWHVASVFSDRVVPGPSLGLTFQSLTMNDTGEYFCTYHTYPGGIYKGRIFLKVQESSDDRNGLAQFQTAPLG

T2: human TIGIT on Jurkat cells (TIGIT/NFAT reporter Jurkat cells, BPS Bioscience #60538); Promega TIGIT Effector … (human, UniProt Q495A1 22-244)
T2 sequence (looked up): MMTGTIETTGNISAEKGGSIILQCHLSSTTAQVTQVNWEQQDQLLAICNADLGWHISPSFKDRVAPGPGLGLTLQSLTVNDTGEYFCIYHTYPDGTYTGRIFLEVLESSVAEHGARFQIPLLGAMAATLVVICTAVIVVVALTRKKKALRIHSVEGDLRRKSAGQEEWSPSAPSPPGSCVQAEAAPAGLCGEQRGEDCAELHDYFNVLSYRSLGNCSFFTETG

T3: his-tagged human TIGIT (Acro Biosystems #TIT-H52H3) (human, UniProt Q495A1 22-141)
T3 construct: Bought protein; also called His-tagged-TIGIT (human); not shown: his tag
T3 sequence (looked up): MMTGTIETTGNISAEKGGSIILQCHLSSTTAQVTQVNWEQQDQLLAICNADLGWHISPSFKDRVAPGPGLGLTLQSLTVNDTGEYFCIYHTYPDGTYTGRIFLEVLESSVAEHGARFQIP

B1: 43645p1.F11 (scFv, V domains shown)
VH: EVQLLESGGGLVQPGGSLRLSCAASGFTFSSYWMSWVRQAPGKGLEWVSGIHISDSTYYADSVKGRFTISRDNSKNTLYLQMNSLRAEDTAVYYCAKGHTVLQYGMDVWGQGTTVTVSS
VL: QSGLTQPPSASGTPGQRVTISCSGDISNTRNNYVSWYQQLPGTAPKLLIYRNSQRPSGVPDRFSGSKSATSASLAISGLQSEDEADYYCGTWDNTLNAWVFGGGTKLTVL
B2: 43586p1.2.E1 (scFv, V domains shown)
VH: EVQLLESGGGLVQPGGSLRLSCAASGFTFSDYLMTWVRQAPGKELEWVSTITWDGDRTYYADSVKGRFTISRDNSKNTLYLQMNSLRAEDTAVYYCAKHWTVFQYGMDVWGQGTTVTVSS
VL: QSVLTQPPSASGTPGQRVTISCSGTISNIEIKYVSWYQQLPGTAPKLLIYGNHQRPSGVPDRFSGSKSGTSASLAISGLQSEDEADYYCSSWENDLKSWVFGGGTKLTVL
B3: 43586p1.2.F9 (scFv, V domains shown)
VH: EVQLLESGGGLVQPGGSLRLSCAASGFTFDDYVMSWVRQAPGKGLEWVSLINWNGDKTYYADSVKGRFTISRDNSKNTLYLQMNSLRAEDTAIYYCAKHWIVFQYGMDVWGRGTTVTVSS
VL: B2 VL with T25S, I31T, G51N, N52S, H53D, S90V, E93D, N94A, D95S
B4: 43586p1.2.E4 (scFv, V domains shown)
VH: B2 VH with E44G
VL: B2 VL
B5: 43586p1.2.G10 (scFv, V domains shown)
VH: B3 VH with G44E, Y59C, R112Q
VL: B2 VL with T25S, I31T, G51N, N52S, H53D, S90V, E93D, N94A, D95S
B6: 43586p1.2.E2 (scFv, V domains shown)
VH: B2 VH with S30T, D31S, T35S, E44G, A88V, E89G
VL: B2 VL with P8A, I31T, S90A
B7: 43586p1.2.G4 (scFv, V domains shown)
VH: B3 VH with I93V, K98R, M107L, R112Q
VL: B2 VL with P8L, T25V, I26S, G51N, N52S, S90T, E93D, N94D, D95R
B8: 43586p2.D11 (scFv, V domains shown)
VH: B3 VH with N54S, D56G, K57T, I93V, F103Y, R112Q
VL: QSVLTQPSSASGTPGQRVAISCSGTISNIETKYVSWYKYVSWYQQLPGTAPKLLIYNNVQRPSGVPDRFSGSQSGTSASLAISGLQSEDEAHYYCASWEGGLNSWVFGGGTKLTVL
B9: 43352p1.H8 (scFv, V domains shown)
VH: DVQLVESGGGVVRPGESLRLSCAASGFNFSTYAMNWVRQAPGEGLEWVSGISGRSSGDTTYYADSVRGWFTVSRDNSKNTLYLQMSSLRAEDTAVYYCARETWIRGYFDYWGLGTLVTVSS
VL: QSVLTQPPSASGTPGQRVTISCSGSRSNLGNNLVYWYQQLPGTAPKLLIYFNNERPSGVPDRFSGSKSGTSASLAISGVQSEDEADYYCATWDDSLNGWVFGGGTKLTVL
B10: benchmark 22G2 (antibody, V domains shown)
VH: QVHLQESGPGLVKPSETLSLTCTVSGGSVSSGIYYWSWIRQPPGKGLEWIGYIYYSGSTNYNPSLKSRVTISVDTSKNQFSLKLSSVTAADTAVYYCARDYYVSGNYYNVDYYFFGVDVWGQGTTVTVSS
VL: EIVLTQSPATLSLSPGERATLSCRASQSVSSYLAWYQQKPGQAPRLLIYDASNRATGIPARFSGSGSGTDFTLTISSLEPEDFAVYYCQQRSNWPPLFTFGPGTKVDIK

What follows are binders tested against T1, his-tagged murine TIGIT (Acro …) (assay: SPR (Carterra LSA), scFv-Fc captured, His-TIGIT analyte; repeat).
Method: (§1) Binding affinities of anti-TIGIT antibodies to human, cyno, and murine TIGIT were measured by Surface Plasmon Resonance (SPR) on a Carterra LSA instrument. Goat anti-human Fc antibody was amine coupled to a HC30M chip. ScFv-Fc supernatants were diluted 30-fold with HBSTE and were captured by the anti-human Fc coupled HC30M chip. A 1:2 dilution series of his-tagged human TIGIT, starting at 400 nM, was injected onto the chip for binding. A dilution series was also carried out for cyno TIGIT and murine TIGIT. Data were analyzed using the Carterra™ Kinetics software.

Kd	Binder
91 nM	B1
22 nM	B2
2.1 nM	B3
18 nM	B4
10 nM	B5
67 nM	B6
4.8 nM	B7
0.744 nM	B8
0.74 nM	B9

These binders were tested against T4, His-tagged cynomolgus monkey TIGIT (Acro Biosystems #TIT-05223) (cynomolgus monkey, UniProt A0A7N9I9V4 89-209) in the same assay as above.
T4 construct: Bought protein; also called cyno TIGIT; cynomolgus TIGIT; not shown: His tag
Method: as §1

T4 sequence (A0A7N9I9V4 entry or part of it): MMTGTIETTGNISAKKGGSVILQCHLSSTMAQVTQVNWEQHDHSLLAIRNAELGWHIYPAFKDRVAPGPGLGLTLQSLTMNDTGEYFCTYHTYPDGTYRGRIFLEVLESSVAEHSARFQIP

Kd	Binder
16 nM	B1
3.2 nM	B2
2 nM	B3
2.8 nM	B4
6.3 nM	B5
4.8 nM	B6
0.582 nM	B7
4.4 nM	B8
114 nM	B9

The binders below were run against T4, His-tagged cynomolgus monkey TIGIT … (assay: SPR (Carterra LSA), antibody captured, His-TIGIT analyte; repeat).

Kd	Binder
3.4 nM	B10

Each binder was assayed against T2, human TIGIT on Jurkat cells (TIGIT/NFAT …) (assay: cell-based or functional assay).

max. signal (% of 22G2)	Binder
100 % of 22G2	B1
111 % of 22G2	B2
127 % of 22G2	B3
113 % of 22G2	B4
96 % of 22G2	B5
125 % of 22G2	B6
101 % of 22G2	B7
102 % of 22G2	B8
96 % of 22G2	B9

The binders below were run against T3, his-tagged human TIGIT (Acro Biosystems …) (assay: SPR (Carterra LSA), scFv-Fc captured, His-TIGIT analyte).
How it was run: (§2)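 Affinity from His-TIGIT analyte injected in 1:2 serial dilution over antibody captured as scFv-Fc via amine-coupled goat anti-human Fc on an HC30M surface. Supernatants diluted 30-fold in HBSTE; kinetic fitting.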

Kd	Binder
0.322 nM	B1
0.029 nM	B2
0.338 nM	B3
0.117 nM	B4
0.941 nM	B5
0.0486 nM	B6
0.394 nM	B7
0.558 nM	B8
0.194 nM	B9

These binders were tested against T1, his-tagged murine TIGIT (Acro …) in the same assay as above.
How it was run: as §2

Kd	Binder
235 nM	B1
7.34 nM	B2
4.95 nM	B3
66.5 nM	B4
15.6 nM	B5
122 nM	B6
6.89 nM	B7
41.4 nM	B8
1.14 nM	B9

The binders below were run against T4, His-tagged cynomolgus monkey TIGIT … in the same assay as above.
How it was run: as §2

Kd	Binder
33 nM	B1
6.27 nM	B2
12.2 nM	B3
25.4 nM	B4
14 nM	B5
9.5 nM	B6
3.19 nM	B7
87.4 nM	B8
120 nM	B9

What follows are binders tested against T3, his-tagged human TIGIT (Acro Biosystems …) (assay: ELISA, coated His-TIGIT, 1 ug/ml).

Elisa OD450	Binder
2.03 OD450	B1
2.25 OD450	B2
2 OD450	B3
2.09 OD450	B4
1.99 OD450	B5
2.02 OD450	B6
2.02 OD450	B7
2.01 OD450	B8
1.8 OD450	B9

The binders below were run against T1, his-tagged murine TIGIT (Acro …) (assay: ELISA, coated His-TIGIT, 1 ug/ml).

Elisa OD450	Binder
1.85 OD450	B1
2.11 OD450	B2
2.14 OD450	B3
2.03 OD450	B4
2.1 OD450	B5
1.78 OD450	B6
2.04 OD450	B7
1.61 OD450	B8
1.85 OD450	B9

What follows are binders tested against T4, His-tagged cynomolgus monkey TIGIT … (assay: ELISA, coated His-TIGIT, 1 ug/ml).

Elisa OD450	Binder
1.8 OD450	B1
1.85 OD450	B2
1.71 OD450	B3
1.86 OD450	B4
1.52 OD450	B5
1.73 OD450	B6
1.88 OD450	B7
1.6 OD450	B8
0.363 OD450	B9

The binders below were run against T2, human TIGIT on Jurkat cells (TIGIT/NFAT …) (assay: flow cytometry, TIGIT/NFAT Jurkat cells, 10 ug/ml).

MFI	Binder
10900 MFI	B1
9480 MFI	B2
9110 MFI	B3
9550 MFI	B4
10100 MFI	B5
9320 MFI	B6
9340 MFI	B7
9530 MFI	B8
10300 MFI	B9

Each binder was assayed against T3, his-tagged human TIGIT (Acro Biosystems …) (assay: SPR (Carterra LSA), antibody captured, His-TIGIT analyte).

Kd	Binder
0.202 nM	B10

The binders below were run against T4, His-tagged cynomolgus monkey TIGIT … in the same assay as above.

Kd	Binder
16.1 nM	B10
